Measured values: patent publication US20260053920A1 (published 2026)
Each block holds one binder with its values, some of them ahead of it.

Tests used:
[1] = target: T1, BST2 peptide on HLA-A*02:01 (human); assay: multimer staining
T1 peptide: LLLGIGILVL

[2] = target: T2, IMP2 peptide on HLA-A*02:01 (human); assay: multimer staining
T2 peptide: NLSALGIFST

[3] = target: T2, IMP2 peptide on HLA-A*02:01; assay: stated without data

B1: MEL11 (TCR)
alpha TRAV12-2*01 TRAJ30 CDR3: CAVNYEDDKIIF
beta TRBV9 TRBJ2-7 CDR3: CASSVGVQGSWEQYF
binding result [1]: recognises | binding result [2]: recognises

B2: MEL8 (TCR, V domains shown)
Valpha: QKEVEQNSGPLSVPEGAIASLNCTYSDRGSQSFFWYRQYSGKSPELIMSIYSNGDKEDGRFTAQLNKASQYVSLLIRDSQPSDSATYLCAVQKLVFGTGTRLLVSP
Vbeta: NAGVTQTPKFQVLKTGQSMTLQCAQDMNHEYMSWYRQDPGMGLRLIHYSVGAGITDQGEVPNGYNVSRSTTEDFPLRLLSAAPSQTSVYFCASSYSFTEATYEQYFGPGTRLTVT
binding result [1]: recognises | binding result [2]: recognises

B4: CLL9 (TCR)
alpha TRAV12-2*01 TRAJ9 CDR3: CAVGAGGFKTIF
beta TRBV2*02 TRBJ2-7 CDR3: CASSESPLSGNEQYF
binding result [1]: no recognition | binding result [2]: recognises

Second part, the binder after the results:

binding result [3]: recognises
B3: MEL56 (TCR)
alpha TRAV12-3 TRAJ35 CDR3: CAMSVGFGNVLHC
beta TRBV27 TRBJ2-7 CDR3: CASSLGLAGNEQYF

binding result [3]: recognises
B5: MEL58 (TCR)
alpha TRAV23DV6 TRAJ54 CDR3: CAARGAQKLVF
beta TRBV6-5 TRBJ1-6 CDR3: CASSYVGLGSPLHF

binding result [1]: recognises | binding result [2]: recognises
B6: MEL25 (TCR)
alpha TRAV8-6 TRAJ47 CDR3: CAVSDNGNKLVF
beta TRBV12-4 TRBJ2-7 CDR3: CASSWAGPVEQYF
